Test results reported in article PMC5405149.

Molecular target: T1, r-YycF (His-GB1-YycF) (Staphylococcus epidermidis (1457?)) (UniProt Q8CQK0)
T1 sequence: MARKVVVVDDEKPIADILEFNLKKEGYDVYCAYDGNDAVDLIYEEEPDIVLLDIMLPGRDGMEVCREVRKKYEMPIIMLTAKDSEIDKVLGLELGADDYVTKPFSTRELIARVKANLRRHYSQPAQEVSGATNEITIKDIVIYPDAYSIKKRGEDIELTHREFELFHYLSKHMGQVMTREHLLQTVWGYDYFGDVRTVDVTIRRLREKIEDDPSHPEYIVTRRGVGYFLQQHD
Assay: EMSA
Details: EMSA: 20 nM DNA, 10 mM Tris pH 8.0, 25 mM KCl, 1 mM EDTA, 2.5 mM MgCl2, 5% glycerol, 37 C 30 min; footprinting: 200 ng probe, binding at 30 C 30 min, DNase I …

Sequence	binding
AAACTAAATTGACCATCACTTAACTAGGTGCTCTGTTAAACTTTTGTTATAAATTAAAGATAGAAGCAACCTATTCATATAAAGTGGTATCTCTTGACAATTTTACTCGTTTATAAGATGTTATAATTATGTAGTGTATAAGGAGGCATA (double strand) [rpsA promoter 150 bp]	binds
ATAATGCTAGAGGGACTTTTTCTAAAGACAGTCTACTTATTCGACTATCTATTAAGGTGGTTCATGGTAAAATGATACTAGTTTCATAACAAATCATTTACAATTTTGAATTACATCTTTAGAAATACGAGTTAATTGTTTAAGATGTAGCGTGAGGTG (double strand) [arlR promoter 159 bp]	binds
ATGATAGGAATCATTACGGTTATTCATAAAAATTAGCATCCTATTTCATGTAATTGTAGTGTAAAAAATAGGCGTTTATTTTTATTTCAGTGTAACCTGCACG (double strand) [sceD promoter 103 bp]	binds
ATTATTCAAATGCTTGTAGTTTTATAAGTCGCATTATTATTTTTAAATATTTTCACTATTGAATGGATTTTGATCTTCTTTATAAAAAATAAATAAAAGGTTTAAAGTTAAATAAAATTTAAAAAATAATAATTTATACAAAATGATATTTTTTTTAATCATAAATAATATGTAAAGTATTGCGTTAAAATGTAAAAGAAGGTAACATTACATACTAGATACATAAAATATATGTATCTTACATTTAAAATTAAATACATGGGAGGTATAAT (double strand) [aap promoter]	binds
CACATTGCTATGTTAATTATTATCAAAAAGAATTTTCAGTAATTTTACATTCATGTAACAGTGTTTGTGTTGCTCAAAATAAAATACTTTAAAAAAGCTGAGCGTATCATTTCTATTCATATTACATAAATTAATTGGGTTAAATGAGATTGTGTAACAATATTAGCAAAAAATTACAAATCAATAACAATGCACACAAACATCAATTTTTCTGTTAGAGTATGGCTTGTCG (double strand) [ssaA1 promoter 232 bp]	binds
CACGATTTTAGTATTGTCTTCAAAAAATCTTAGTATTTGCTATATATTATGTTAATACATGTATATCTTAGCATTATTTAAATAAGGAATGAATTATTTAAAGGTGAGCGCAACAAAATTTTAAGTATATTTTAACACTACCTTAACAGTCTTTAATGAATGATTTTATCACTATCTAATAGAACGTG (double strand) [murE promoter 188 bp]	binds
CATCTATTCATTCAATCAAGTATTTTTATTCTTTATAAAACTATGTTAGCAAATTAAATTTTAATACACGTTTCATTAATTCAAATCCCATTCTTAACAAAAAATTTACAATAACTCTATTTTGATTTAATAAAAGATATGTAACATGAGAACTGTAAGAAATACATAT (double strand) [pstS promoter 167 bp]	binds
TGATTTTATCGCTCATCATTTTTAATAAGATTATGAGACACTTATGTAAAAATTTAATATCTAGTTTGTTAAGAATTTGTAAATAGAATTGTGGTTATGTAAATTTTGTGATATTTTCAAGTAGGGACAAAACTGGATGTTGGCGAACATCAATAAATGATTACTATATATTAAATTTACACAATTTTTACAATATAAGAATTGCTAGTTACTTTTTATAATAATTGTAAATCAGTTCCTCAACCACTT (double strand) [pitR promoter 249 bp]	binds
TTACAAACCCCGTCATATCTAGGACTAACAGACCTCAATTATATAAATAAGTAATTTTTTTTGAACATACTCTTGTAAATATTGTGTAATAAACTAAAATTATTGGTAAGCCCTACATTTGTAGTATTAGGAGGTCAAAAAAAGTGTCAAAATTTAAGTCTTTGCTTCTATTATTTGGCA (double strand) [qoxB promoter 180 bp]	binds
TTCTAAAATCTCCCCCTTATTCAATTTTCTAAAAATATATTACAGAAAAATTAAGTTAAAATTACAAATATTACTGTTTCAGTATAACAACATTCTATTGCAAATTGAAATACTTTCGATTAGCATATGCTTTACAACCTAACTAACGAAAGGTAGGTGAAAAA (double strand) [ica intergenic region (icaR-icaA)]	binds
